# Where two headings read alike, the source gives them in different places.
# What was measured:
# Experiment in all cases: cell-based or functional assay
# [1] = molecular target: receptor of ecotropic murine leukaemia virus Rec1 (murine) (UniProt Q09143)
# [2] = molecular target: receptor of ecotropic murine leukaemia virus Rec1 (murine) (UniProt Q09143); remark: listed apart in the source
# [3] = molecular target: receptor of ecotropic murine leukaemia virus Rec1 (murine) (UniProt Q09143); remark: listed apart in the source
# Sequence of envelope protein of ecotropic Friend murine leukaemia virus molecular clone PVC-211 (P26803 35-676 limits assumed): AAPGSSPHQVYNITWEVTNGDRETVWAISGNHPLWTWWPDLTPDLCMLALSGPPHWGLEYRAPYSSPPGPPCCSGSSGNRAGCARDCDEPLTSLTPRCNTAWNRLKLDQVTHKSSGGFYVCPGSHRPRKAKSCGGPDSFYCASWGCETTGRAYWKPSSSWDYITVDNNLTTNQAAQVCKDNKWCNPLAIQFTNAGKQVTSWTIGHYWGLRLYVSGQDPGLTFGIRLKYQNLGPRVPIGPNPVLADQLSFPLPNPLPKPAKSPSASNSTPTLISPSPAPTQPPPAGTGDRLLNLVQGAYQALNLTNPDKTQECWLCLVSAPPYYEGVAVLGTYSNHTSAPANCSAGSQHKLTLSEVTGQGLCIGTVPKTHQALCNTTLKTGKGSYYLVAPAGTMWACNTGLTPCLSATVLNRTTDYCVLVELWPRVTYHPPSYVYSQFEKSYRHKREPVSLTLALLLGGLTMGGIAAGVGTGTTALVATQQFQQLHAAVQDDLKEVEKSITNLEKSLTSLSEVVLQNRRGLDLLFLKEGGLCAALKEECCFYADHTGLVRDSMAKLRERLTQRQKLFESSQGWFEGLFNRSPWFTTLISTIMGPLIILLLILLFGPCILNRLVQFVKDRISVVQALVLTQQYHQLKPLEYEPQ
# Sequence of receptor of ecotropic murine leukaemia virus Rec1 (murine) (Q09143 whole entry): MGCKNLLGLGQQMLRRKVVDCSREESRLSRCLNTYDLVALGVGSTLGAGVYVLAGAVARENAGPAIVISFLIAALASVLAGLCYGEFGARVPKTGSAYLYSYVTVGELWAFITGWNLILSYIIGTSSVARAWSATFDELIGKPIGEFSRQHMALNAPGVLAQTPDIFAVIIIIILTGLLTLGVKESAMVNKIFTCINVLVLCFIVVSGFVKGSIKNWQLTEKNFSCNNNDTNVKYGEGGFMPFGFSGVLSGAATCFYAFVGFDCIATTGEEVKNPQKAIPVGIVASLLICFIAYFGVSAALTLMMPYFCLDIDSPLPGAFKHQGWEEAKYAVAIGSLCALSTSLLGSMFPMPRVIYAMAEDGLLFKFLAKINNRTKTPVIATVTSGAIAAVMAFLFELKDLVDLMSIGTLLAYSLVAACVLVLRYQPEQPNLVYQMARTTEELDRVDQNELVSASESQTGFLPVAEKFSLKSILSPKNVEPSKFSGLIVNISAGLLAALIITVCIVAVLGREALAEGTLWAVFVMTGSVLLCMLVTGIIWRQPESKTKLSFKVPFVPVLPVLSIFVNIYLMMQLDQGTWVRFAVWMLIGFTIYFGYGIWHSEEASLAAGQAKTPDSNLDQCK
# Sequence of wild type envelope of ecotropic Moloney murine leukaemia virus (P03385 34-665 limits assumed): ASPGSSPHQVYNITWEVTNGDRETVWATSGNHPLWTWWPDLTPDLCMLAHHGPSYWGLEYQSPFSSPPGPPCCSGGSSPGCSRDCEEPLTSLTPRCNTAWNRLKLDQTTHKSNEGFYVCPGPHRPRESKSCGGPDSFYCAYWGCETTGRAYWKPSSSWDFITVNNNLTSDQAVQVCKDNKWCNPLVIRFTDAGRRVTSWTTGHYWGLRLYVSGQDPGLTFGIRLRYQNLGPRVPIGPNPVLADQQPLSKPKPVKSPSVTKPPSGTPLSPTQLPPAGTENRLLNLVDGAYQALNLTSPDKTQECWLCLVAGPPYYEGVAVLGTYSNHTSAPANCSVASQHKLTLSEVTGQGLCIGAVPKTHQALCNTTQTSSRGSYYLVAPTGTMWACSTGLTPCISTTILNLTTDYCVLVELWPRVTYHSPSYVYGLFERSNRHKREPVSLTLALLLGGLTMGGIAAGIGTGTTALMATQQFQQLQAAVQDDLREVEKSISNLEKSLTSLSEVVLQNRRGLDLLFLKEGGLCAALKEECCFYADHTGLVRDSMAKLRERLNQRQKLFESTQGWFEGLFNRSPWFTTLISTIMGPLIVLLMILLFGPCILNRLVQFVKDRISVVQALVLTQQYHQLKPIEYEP
Substance,transduction efficiency (% GFP positive cells) in CHO T-REx Rec1-I-neo cells [1] [%],transduction efficiency (% GFP positive cells) in CHO-K1 Rec1-I-neo cells [1] [%],transduction efficiency (% GFP positive cells) in CHO-S Rec1-I-puro cells [1] [%],transduction efficiency (% GFP positive cells) in CHO-S Rec1-I-puro cells [2] [%],"fold gene transfer efficiency, CHO-S Rec1-I-puro cells against CHO-S cells [3] [fold]","fold transduction efficiency in CHO-S Rec1-I-puro cells, MLV (PVC-211 Env) against MLV (wtEnv) vector particles [3] [fold]","puromycin-resistant cell colonies counted in ten fields, CHO-S Rec1-I-neo cells transduced once [3] [colonies]","puromycin-resistant cell colonies counted in ten fields, CHO-S Rec1-I-neo cells transduced three times [3] [colonies]",transduction efficiency (% GFP positive cells) in BHK Rec1-I-puro cells [3] [%],transduction efficiency (% GFP positive cells) in CHO-S Rec1-I-puro cells [3] [%],transduction efficiency (% GFP positive cells) in HT1080 Rec1-I-neo cells [3] [%],"fold gene transfer efficiency, CHO-S Rec1-I-puro cells against parental CHO-S cells [3] [fold]","fold gene transfer, CHO-S Rec1-I-puro cells against CHO-S cells [3] [fold]",gene transfer efficiency (% GFP positive cells) in CHO-S Rec1-I-puro cells [3] [%]
envelope protein of ecotropic Friend murine leukaemia virus molecular clone PVC-211 (from UniProt P26803 35-676),71.1,48.3,73,19,13,> 33,41,230,31,15.5,16,–,–,–
wild type envelope of ecotropic Moloney murine leukaemia virus (from UniProt P03385 34-665),9.95,14.7,12.1,0.56,–,–,–,–,4.72,0.55,0.21,3,3.7,1.14

# From US20140227786A1
